Measured values reported in PMC9482650, “Quantitative fragmentomics allow affinity mapping of interactomes” (Nature Communications, 2022).

Columns and labels:
Assay in all cases: holdup assay
Design in all cases: key: below the threshold = too weak to quantify, mostly under pKd 3.1 to 4
[1] = biological target: CASK, O14936
[2] = biological target: GRIP2_3, Q9C0E4
[3] = biological target: T1, APBA3_1, O96018
T1 sequence (O96018 389-490, limits assumed, looked up): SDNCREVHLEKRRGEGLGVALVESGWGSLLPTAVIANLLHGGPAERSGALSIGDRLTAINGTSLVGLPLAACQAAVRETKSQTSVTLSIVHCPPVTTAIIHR

[4] = biological target: Inadl_8, Q8NI35
Inadl_8, Q8NI35, sequence (Q8NI35 1425-1530): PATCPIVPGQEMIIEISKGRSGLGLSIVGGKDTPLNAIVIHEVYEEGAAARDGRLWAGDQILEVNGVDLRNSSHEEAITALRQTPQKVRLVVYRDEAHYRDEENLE

[5] = biological target: DLG1_3, Q12959
DLG1_3, Q12959, sequence (Q12959 457-571): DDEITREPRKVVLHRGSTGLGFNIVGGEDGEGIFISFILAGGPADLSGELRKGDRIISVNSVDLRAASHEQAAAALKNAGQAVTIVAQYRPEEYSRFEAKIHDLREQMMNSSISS

[6] = biological target: NHERF2_2, Q15599
NHERF2_2, Q15599, sequence (Q15599 142-238): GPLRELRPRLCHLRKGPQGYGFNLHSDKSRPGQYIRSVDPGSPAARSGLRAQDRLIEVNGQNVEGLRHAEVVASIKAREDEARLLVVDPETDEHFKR

[7] = biological target: T2, NHERF3_1, Q5T2W1
T2 sequence (Q5T2W1 4-100, limits assumed, looked up): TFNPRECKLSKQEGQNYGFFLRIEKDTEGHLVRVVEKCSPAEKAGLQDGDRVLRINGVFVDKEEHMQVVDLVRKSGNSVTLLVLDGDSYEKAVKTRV

[8] = biological target: LIMK2, P53671
LIMK2, P53671, sequence (P53671 143-248): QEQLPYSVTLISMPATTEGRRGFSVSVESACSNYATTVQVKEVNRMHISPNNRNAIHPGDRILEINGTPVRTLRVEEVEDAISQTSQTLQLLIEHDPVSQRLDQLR

[9] = biological target: T3, DLG3_3, Q92796
T3 sequence (Q92796 374-475, limits assumed, looked up): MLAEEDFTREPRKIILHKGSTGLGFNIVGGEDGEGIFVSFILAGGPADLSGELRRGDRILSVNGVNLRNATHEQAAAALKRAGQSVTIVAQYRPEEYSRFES

[10] = biological target: T4, APBA1_2, Q02410
T4 sequence (Q02410 742-832, limits assumed, looked up): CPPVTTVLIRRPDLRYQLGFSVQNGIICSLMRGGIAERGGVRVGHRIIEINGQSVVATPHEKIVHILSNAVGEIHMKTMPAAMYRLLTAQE

[11] = biological target: GRIP2_6, Q9C0E4
GRIP2_6, Q9C0E4, sequence (Q9C0E4 648-740): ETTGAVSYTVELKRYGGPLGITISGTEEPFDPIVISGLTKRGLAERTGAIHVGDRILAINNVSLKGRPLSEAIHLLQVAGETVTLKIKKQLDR

[12] = biological target: FRMPD3, Q5JV73
FRMPD3, Q5JV73, sequence (Q5JV73 12-100): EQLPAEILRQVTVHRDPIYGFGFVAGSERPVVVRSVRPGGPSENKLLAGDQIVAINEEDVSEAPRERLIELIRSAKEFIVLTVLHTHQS

[13] = biological target: T5, LNX2_3, Q8N448
T5 sequence (Q8N448 463-564, limits assumed, looked up): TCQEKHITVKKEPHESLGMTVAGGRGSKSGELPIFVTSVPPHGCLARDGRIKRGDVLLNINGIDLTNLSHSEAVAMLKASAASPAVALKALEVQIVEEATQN

[14] = biological target: T6, PDZD7_3, Q9H5P4
T6 sequence (Q9H5P4 857-944, limits assumed, looked up): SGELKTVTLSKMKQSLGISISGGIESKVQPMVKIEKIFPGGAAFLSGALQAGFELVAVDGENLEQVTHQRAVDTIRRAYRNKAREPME

[15] = biological target: T7, SHANK1, Q9Y566
T7 sequence (Q9Y566 658-767, limits assumed, looked up): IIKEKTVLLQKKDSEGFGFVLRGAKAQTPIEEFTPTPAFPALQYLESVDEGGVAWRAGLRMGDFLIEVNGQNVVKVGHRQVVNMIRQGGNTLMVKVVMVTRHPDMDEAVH

[16] = biological target: Inadl_4, Q8NI35
Inadl_4, Q8NI35, sequence (Q8NI35 547-651): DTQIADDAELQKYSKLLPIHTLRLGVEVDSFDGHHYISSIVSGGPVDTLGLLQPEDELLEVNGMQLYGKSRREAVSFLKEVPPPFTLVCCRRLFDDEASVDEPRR

[17] = biological target: LAP2, Q96RT1
LAP2, Q96RT1, sequence (Q96RT1 other isoform, or with tags, fused parts or gaps): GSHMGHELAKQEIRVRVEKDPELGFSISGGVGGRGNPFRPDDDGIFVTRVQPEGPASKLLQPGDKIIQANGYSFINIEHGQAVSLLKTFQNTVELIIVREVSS

[18] = biological target: T8, LRRC7, Q96NW7
T8 sequence (Q96NW7 1440-1537, limits assumed, looked up): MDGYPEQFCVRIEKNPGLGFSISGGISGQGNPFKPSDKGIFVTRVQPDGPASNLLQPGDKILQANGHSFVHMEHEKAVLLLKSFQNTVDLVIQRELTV

[19] = biological target: LNX1_1, Q8TBB1
LNX1_1, Q8TBB1, sequence (Q8TBB1 261-371): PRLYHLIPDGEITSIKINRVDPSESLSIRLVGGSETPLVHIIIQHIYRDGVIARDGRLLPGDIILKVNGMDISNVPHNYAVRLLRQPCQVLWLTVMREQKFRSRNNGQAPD

[20] = biological target: FRMPD2_3, Q68DX3
FRMPD2_3, Q68DX3, sequence (Q68DX3 1073-1166): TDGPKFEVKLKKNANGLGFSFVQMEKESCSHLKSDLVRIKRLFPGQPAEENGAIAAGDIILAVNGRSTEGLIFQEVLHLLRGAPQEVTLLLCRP

[21] = biological target: DLG4_1, P78352
DLG4_1, P78352, sequence (P78352 62-152): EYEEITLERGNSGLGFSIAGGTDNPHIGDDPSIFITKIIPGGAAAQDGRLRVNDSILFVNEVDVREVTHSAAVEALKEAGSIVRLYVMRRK

[22] = biological target: NHERF4_2, Q86UT5
NHERF4_2, Q86UT5, sequence (Q86UT5 220-308): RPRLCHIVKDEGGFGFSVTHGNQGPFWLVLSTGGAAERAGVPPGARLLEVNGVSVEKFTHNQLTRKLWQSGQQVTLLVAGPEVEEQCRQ

[23] = biological target: TJP2_1, Q9UDY2
TJP2_1, Q9UDY2, sequence (Q9UDY2 24-128): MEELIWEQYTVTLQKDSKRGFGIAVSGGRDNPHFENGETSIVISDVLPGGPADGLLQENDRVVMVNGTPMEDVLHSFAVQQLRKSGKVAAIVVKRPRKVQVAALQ

[24] = biological target: T9, TJP3_3, O95049
T9 sequence (O95049 375-456, limits assumed, looked up): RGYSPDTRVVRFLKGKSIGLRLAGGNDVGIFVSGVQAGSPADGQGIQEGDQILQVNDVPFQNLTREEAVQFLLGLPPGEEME

[25] = biological target: T10, NHERF3_3, Q5T2W1
T10 sequence (Q5T2W1 238-333, limits assumed, looked up): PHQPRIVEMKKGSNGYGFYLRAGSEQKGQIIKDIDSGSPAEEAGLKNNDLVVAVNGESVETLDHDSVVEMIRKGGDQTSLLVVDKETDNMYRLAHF

[26] = biological target: T11, RHPN1, Q8TCX5
T11 sequence (Q8TCX5 508-602, limits assumed, looked up): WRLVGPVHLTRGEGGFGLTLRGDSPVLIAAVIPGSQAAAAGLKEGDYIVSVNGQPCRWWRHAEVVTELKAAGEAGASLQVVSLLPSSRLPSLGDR

[27] = biological target: GOPC, Q9HD26
[28] = plain residues with an end cap or a label only (N-terminal biotin on a linker: ahx)
[29] = plain residues with an end cap or a label only (N-terminal biotin on a linker: ttds)
[30] = plain residues with an end cap or a label only (N-terminal biotin on a linker: ado-ado)

CASK, O14936, sequence (O14936 487-570): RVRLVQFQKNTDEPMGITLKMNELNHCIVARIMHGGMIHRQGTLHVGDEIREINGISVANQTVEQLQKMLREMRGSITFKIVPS
GRIP2_3, Q9C0E4, sequence (Q9C0E4 238-339): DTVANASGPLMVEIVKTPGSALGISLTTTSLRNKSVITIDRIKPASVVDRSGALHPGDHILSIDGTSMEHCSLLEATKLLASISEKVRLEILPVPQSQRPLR

Question: Which results are given for GIFPTLTSPL [SHROOM3, Q8TF72]?
Answer: pKd [1, 28]: below the threshold; pKd [2, 28]: below the threshold; pKd [3, 28]: below the threshold; pKd [4, 28]: below the threshold; pKd [5, 28]: below the threshold; pKd [6, 28]: 3.66; pKd [7, 28]: 4.2; pKd [8, 28]: below the threshold; pKd [9, 28]: below the threshold; pKd [10, 28]: below the threshold; pKd [11, 28]: below the threshold; pKd [12, 28]: below the threshold; pKd [13, 28]: below the threshold; pKd [14, 28]: 3.51; pKd [15, 28]: 4.8; pKd [16, 28]: below the threshold; pKd [17, 28]: below the threshold; pKd [18, 28]: below the threshold; pKd [19, 28]: below the threshold; pKd [20, 28]: below the threshold; pKd [21, 28]: below the threshold; pKd [22, 28]: below the threshold; pKd [23, 28]: below the threshold; pKd [24, 28]: below the threshold; pKd [25, 28]: below the threshold; pKd [26, 28]: 4.27; pKd [27, 28]: below the threshold

Question: For SRRPRTETQV [HPV31-E6, P17386], which pKd [1, 29] is on record?
Answer: below the threshold

Question: What about the pKd [2, 29] of the same binder?
Answer: below the threshold

Question: And the pKd [3, 29]?
Answer: below the threshold

Question: What about the pKd [4, 29] of the same binder?
Answer: below the threshold

Question: And the pKd [5, 29]?
Answer: 4.6

Question: And the pKd [6, 29]?
Answer: below the threshold

Question: And the pKd [7, 29]?
Answer: 4.32

Question: What about the pKd [8, 29] of the same binder?
Answer: below the threshold

Question: And the pKd [9, 29]?
Answer: 5.1

Question: What about the pKd [10, 29] of the same binder?
Answer: below the threshold

Question: What about the pKd [11, 29] of the same binder?
Answer: below the threshold

Question: And the pKd [12, 29]?
Answer: below the threshold

Question: What about the pKd [13, 29] of the same binder?
Answer: below the threshold

Question: What about the pKd [14, 29] of the same binder?
Answer: 3.71

Question: What about the pKd [15, 29] of the same binder?
Answer: below the threshold

Question: What about the pKd [16, 29] of the same binder?
Answer: below the threshold

Question: And the pKd [17, 29]?
Answer: 3.9

Question: And the pKd [18, 29]?
Answer: below the threshold

Question: And the pKd [19, 29]?
Answer: below the threshold

Question: What about the pKd [20, 29] of the same binder?
Answer: below the threshold

Question: And the pKd [21, 29]?
Answer: 5.02

Question: And the pKd [22, 29]?
Answer: below the threshold

Question: What about the pKd [23, 29] of the same binder?
Answer: 3.66

Question: What about the pKd [24, 29] of the same binder?
Answer: below the threshold

Question: What about the pKd [25, 29] of the same binder?
Answer: below the threshold

Question: What about the pKd [26, 29] of the same binder?
Answer: 3.74

Question: What about the pKd [27, 29] of the same binder?
Answer: below the threshold

Question: For GKKSVKHSKI [ACOT6, Q3I5F7], which pKd [1, 30] is on record?
Answer: below the threshold

Question: What about the pKd [2, 30] of the same binder?
Answer: below the threshold

Question: What about the pKd [3, 30] of the same binder?
Answer: below the threshold

Question: What about the pKd [4, 30] of the same binder?
Answer: 3.88

Question: And the pKd [5, 30]?
Answer: below the threshold

Question: And the pKd [6, 30]?
Answer: below the threshold

Question: And the pKd [7, 30]?
Answer: 3.66

Question: And the pKd [8, 30]?
Answer: below the threshold

Question: What about the pKd [9, 30] of the same binder?
Answer: below the threshold

Question: What about the pKd [10, 30] of the same binder?
Answer: below the threshold

Question: What about the pKd [11, 30] of the same binder?
Answer: below the threshold

Question: And the pKd [12, 30]?
Answer: below the threshold

Question: And the pKd [13, 30]?
Answer: below the threshold

Question: What about the pKd [14, 30] of the same binder?
Answer: 4.58

Question: And the pKd [15, 30]?
Answer: below the threshold

Question: And the pKd [16, 30]?
Answer: below the threshold

Question: And the pKd [17, 30]?
Answer: below the threshold

Question: And the pKd [18, 30]?
Answer: below the threshold

Question: What about the pKd [19, 30] of the same binder?
Answer: below the threshold

Question: And the pKd [20, 30]?
Answer: below the threshold

Question: And the pKd [21, 30]?
Answer: below the threshold

Question: And the pKd [22, 30]?
Answer: below the threshold

Question: What about the pKd [23, 30] of the same binder?
Answer: below the threshold

Question: What about the pKd [24, 30] of the same binder?
Answer: below the threshold

Question: What about the pKd [25, 30] of the same binder?
Answer: below the threshold

Question: What about the pKd [26, 30] of the same binder?
Answer: below the threshold

Question: What about the pKd [27, 30] of the same binder?
Answer: 3.68

Question: With TIVSWPGTFL [LNX1, Q8TBB1] as the binder, how does the pKd [1, 28] read?
Answer: below the threshold

Question: And the pKd [2, 28]?
Answer: below the threshold

Question: What about the pKd [3, 28] of the same binder?
Answer: below the threshold

Question: What about the pKd [4, 28] of the same binder?
Answer: below the threshold

Question: And the pKd [5, 28]?
Answer: below the threshold

Question: And the pKd [6, 28]?
Answer: 4.21

Question: What about the pKd [7, 28] of the same binder?
Answer: 5.34

Question: What about the pKd [8, 28] of the same binder?
Answer: below the threshold

Question: And the pKd [9, 28]?
Answer: below the threshold

Question: And the pKd [10, 28]?
Answer: 4.33

Question: And the pKd [11, 28]?
Answer: below the threshold

Question: And the pKd [12, 28]?
Answer: below the threshold

Question: And the pKd [13, 28]?
Answer: below the threshold

Question: What about the pKd [14, 28] of the same binder?
Answer: 4.13

Question: What about the pKd [15, 28] of the same binder?
Answer: 4.24

Question: What about the pKd [16, 28] of the same binder?
Answer: below the threshold

Question: And the pKd [17, 28]?
Answer: below the threshold

Question: What about the pKd [18, 28] of the same binder?
Answer: below the threshold

Question: What about the pKd [19, 28] of the same binder?
Answer: 4.09

Question: And the pKd [20, 28]?
Answer: below the threshold

Question: And the pKd [21, 28]?
Answer: below the threshold

Question: And the pKd [22, 28]?
Answer: below the threshold

Question: What about the pKd [23, 28] of the same binder?
Answer: below the threshold

Question: What about the pKd [24, 28] of the same binder?
Answer: below the threshold

Question: And the pKd [25, 28]?
Answer: below the threshold

Question: What about the pKd [26, 28] of the same binder?
Answer: 4.17

Question: What about the pKd [27, 28] of the same binder?
Answer: 3.75

Question: Which results are given for NQLAWFDTDL [CTNNB1, P35222]?
Answer: pKd [1, 29]: below the threshold; pKd [2, 29]: below the threshold; pKd [3, 29]: below the threshold; pKd [4, 29]: below the threshold; pKd [5, 29]: below the threshold; pKd [6, 29]: 4.87; pKd [7, 29]: 3.66; pKd [8, 29]: below the threshold; pKd [9, 29]: below the threshold; pKd [10, 29]: below the threshold; pKd [11, 29]: below the threshold; pKd [12, 29]: below the threshold; pKd [13, 29]: below the threshold; pKd [14, 29]: below the threshold; pKd [15, 29]: 4.1; pKd [16, 29]: below the threshold; pKd [17, 29]: 4.53; pKd [18, 29]: 3.94; pKd [19, 29]: 3.47; pKd [20, 29]: below the threshold; pKd [21, 29]: below the threshold; pKd [22, 29]: below the threshold; pKd [23, 29]: below the threshold; pKd [24, 29]: below the threshold; pKd [25, 29]: below the threshold; pKd [26, 29]: 4.46; pKd [27, 29]: below the threshold
